Values belong to the molecule of their own block, whether it stands above or below them.
Experiments:
[1] = molecular target: CD22 (human) (UniProt P20273); assay: flow cytometry, WSU-FSCCL cells, FITC goat anti-human IgG detection
[2] = molecular target: CD22 (human) (UniProt P20273); assay: flow cytometry, Daudi cells, FITC goat anti-human IgG detection
[3] = molecular target: CD22 (human) (UniProt P20273); assay: flow cytometry, Ramos cells, FITC goat anti-human IgG detection
[4] = molecular target: CD22 (human) (UniProt P20273); assay: flow cytometry, Jeko-1 cells, FITC goat anti-human IgG detection
[5] = molecular target: CD22 (human) (UniProt P20273); assay: flow cytometry, MN-60 cells, FITC goat anti-human IgG detection
[6] = molecular target: CD22 (human) (UniProt P20273); assay: flow cytometry, 697 cells, FITC goat anti-human IgG detection
[7] = molecular target: CD22 (human) (UniProt P20273); assay: flow cytometry, REH cells, FITC goat anti-human IgG detection
[8] = molecular target: CD22 (human) (UniProt P20273); assay: flow cytometry, RS4;11 cells, FITC goat anti-human IgG detection
[9] = molecular target: CD22 (human) (UniProt P20273); assay: flow cytometry, Raji cells, FITC goat anti-human IgG detection
[10] = molecular target: Human trophoblast cell-surface antigen (TROP-2) (human) (UniProt P09758); assay: flow cytometry, surface, Capan-1 cells
[11] = molecular target: Human trophoblast cell-surface antigen (TROP-2) (human) (UniProt P09758); assay: flow cytometry, surface, NCI-N87 cells
[12] = molecular target: CD74 (invariant chain, Ii) (human) (UniProt P04233); assay: flow cytometry, surface, Hep-G2 cells, GAH-FITC detection
[13] = molecular target: CD74 (invariant chain, Ii) (human) (UniProt P04233); assay: flow cytometry, surface and cytoplasmic (permeabilized), Capan-1 cells
[14] = molecular target: CD74 (invariant chain, Ii) (human) (UniProt P04233); assay: flow cytometry, surface, Raji cells; ratio to background (GAH-FITC only)
[15] = molecular target: CD74 (invariant chain, Ii) (human) (UniProt P04233); assay: flow cytometry, surface and cytoplasmic (permeabilized), Hep-G2 cells; ratio to background
[16] = molecular target: CD74 (invariant chain, Ii) (human) (UniProt P04233); assay: cell binding assay on antigen-positive cells
[17] = molecular target: CD74 (invariant chain, Ii) (human) (UniProt P04233); assay: flow cytometry, surface and cytoplasmic (permeabilized), Hs746T cells; ratio to background
[18] = molecular target: CD74 (invariant chain, Ii) (human) (UniProt P04233); assay: flow cytometry, surface, Capan-1 cells; ratio to background (GAH-FITC only)
[19] = molecular target: CD74 (invariant chain, Ii) (human) (UniProt P04233); assay: flow cytometry, surface and cytoplasmic (permeabilized), NCI-N87 cells; ratio to background
[20] = molecular target: CD74 (invariant chain, Ii) (human) (UniProt P04233); assay: flow cytometry, surface, HuH-7 cells, GAH-FITC detection
[21] = molecular target: CD74 (invariant chain, Ii) (human) (UniProt P04233); assay: flow cytometry, surface, Hs746T cells; ratio to background (GAH-FITC only)
[22] = molecular target: CD74 (invariant chain, Ii) (human) (UniProt P04233); assay: flow cytometry, surface and cytoplasmic (permeabilized), Hep-G2 cells
[23] = molecular target: CD74 (invariant chain, Ii) (human) (UniProt P04233); assay: flow cytometry, surface, Raji cells, GAH-FITC detection
[24] = molecular target: CD74 (invariant chain, Ii) (human) (UniProt P04233); assay: flow cytometry, surface and cytoplasmic (permeabilized), Raji cells
[25] = molecular target: CD74 (invariant chain, Ii) (human) (UniProt P04233); assay: flow cytometry, surface, NCI-N87 cells, GAH-FITC detection
[26] = molecular target: CD74 (invariant chain, Ii) (human) (UniProt P04233); assay: flow cytometry, surface and cytoplasmic (permeabilized), HuH-7 cells; ratio to background
[27] = molecular target: CD74 (invariant chain, Ii) (human) (UniProt P04233); assay: flow cytometry, surface, Hep-G2 cells; ratio to background (GAH-FITC only)
[28] = molecular target: CD74 (invariant chain, Ii) (human) (UniProt P04233); assay: flow cytometry, surface and cytoplasmic (permeabilized), Hs746T cells
[29] = molecular target: CD74 (invariant chain, Ii) (human) (UniProt P04233); assay: flow cytometry, surface, A-375 cells; ratio to background (GAH-FITC only)
[30] = molecular target: CD74 (invariant chain, Ii) (human) (UniProt P04233); assay: flow cytometry, surface, Capan-1 cells, GAH-FITC detection
[31] = molecular target: CD74 (invariant chain, Ii) (human) (UniProt P04233); assay: flow cytometry, surface and cytoplasmic (permeabilized), NCI-N87 cells
[32] = molecular target: CD74 (invariant chain, Ii) (human) (UniProt P04233); assay: flow cytometry, surface and cytoplasmic (permeabilized), Capan-1 cells; ratio to background
[33] = molecular target: CD74 (invariant chain, Ii) (human) (UniProt P04233); assay: flow cytometry, surface and cytoplasmic (permeabilized), HuH-7 cells
[34] = molecular target: CD74 (invariant chain, Ii) (human) (UniProt P04233); assay: flow cytometry, surface, A-375 cells, GAH-FITC detection
[35] = molecular target: CD74 (invariant chain, Ii) (human) (UniProt P04233); assay: flow cytometry, surface and cytoplasmic (permeabilized), A-375 cells
[36] = molecular target: CD74 (invariant chain, Ii) (human) (UniProt P04233); assay: flow cytometry, surface, HuH-7 cells; ratio to background (GAH-FITC only)
[37] = molecular target: CD74 (invariant chain, Ii) (human) (UniProt P04233); assay: flow cytometry, surface, NCI-N87 cells; ratio to background (GAH-FITC only)
[38] = molecular target: CD74 (invariant chain, Ii) (human) (UniProt P04233); assay: flow cytometry, surface and cytoplasmic (permeabilized), Raji cells; ratio to background
[39] = molecular target: CD74 (invariant chain, Ii) (human) (UniProt P04233); assay: flow cytometry, surface and cytoplasmic (permeabilized), A-375 cells; ratio to background
[40] = molecular target: CD74 (invariant chain, Ii) (human) (UniProt P04233); assay: flow cytometry, surface, Hs746T cells, GAH-FITC detection
[41] = molecular target: CEACAM6 (human) (UniProt P40199); assay: flow cytometry, surface, HuH-7 cells
[42] = molecular target: CEACAM6 (human) (UniProt P40199); assay: flow cytometry, surface, Hep-G2 cells
[43] = molecular target: CEACAM6 (human) (UniProt P40199); assay: flow cytometry, surface, NCI-N87 cells
[44] = molecular target: T1, CD20 (human) (UniProt P11836); assay: flow cytometry, WSU-FSCCL cells, FITC goat anti-human IgG detection
T1 sequence (looked up): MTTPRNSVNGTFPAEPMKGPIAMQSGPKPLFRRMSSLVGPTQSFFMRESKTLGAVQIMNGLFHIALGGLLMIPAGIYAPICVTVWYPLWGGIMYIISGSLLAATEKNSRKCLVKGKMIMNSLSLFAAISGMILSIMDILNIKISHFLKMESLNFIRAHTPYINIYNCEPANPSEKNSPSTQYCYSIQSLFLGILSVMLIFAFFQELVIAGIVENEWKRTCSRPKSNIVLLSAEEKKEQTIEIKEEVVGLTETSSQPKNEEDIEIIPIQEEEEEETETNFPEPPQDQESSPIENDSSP

[45] = molecular target: T1, CD20 (human); assay: flow cytometry, Daudi cells, FITC goat anti-human IgG detection
[46] = molecular target: T1, CD20 (human); assay: flow cytometry, Ramos cells, FITC goat anti-human IgG detection
[47] = molecular target: T1, CD20 (human); assay: flow cytometry, Jeko-1 cells, FITC goat anti-human IgG detection
[48] = molecular target: T1, CD20 (human); assay: flow cytometry, MN-60 cells, FITC goat anti-human IgG detection
[49] = molecular target: T1, CD20 (human); assay: flow cytometry, 697 cells, FITC goat anti-human IgG detection
[50] = molecular target: T1, CD20 (human); assay: flow cytometry, REH cells, FITC goat anti-human IgG detection
[51] = molecular target: T1, CD20 (human); assay: flow cytometry, Raji cells, FITC goat anti-human IgG detection
[52] = molecular target: T1, CD20 (human); assay: flow cytometry, RS4;11 cells, FITC goat anti-human IgG detection (background 4.1)

CD74 (invariant chain, Ii) (human), sequence (P04233 whole entry, change not shown): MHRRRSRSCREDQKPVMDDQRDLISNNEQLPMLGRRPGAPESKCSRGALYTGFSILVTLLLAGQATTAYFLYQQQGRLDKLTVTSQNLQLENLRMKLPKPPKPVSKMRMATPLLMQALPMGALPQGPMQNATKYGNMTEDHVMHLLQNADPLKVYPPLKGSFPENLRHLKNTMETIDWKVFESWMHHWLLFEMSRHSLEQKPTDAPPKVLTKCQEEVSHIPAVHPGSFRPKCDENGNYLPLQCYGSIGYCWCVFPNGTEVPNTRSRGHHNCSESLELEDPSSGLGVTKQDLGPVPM
CEACAM6 (human), sequence (P40199 35-320): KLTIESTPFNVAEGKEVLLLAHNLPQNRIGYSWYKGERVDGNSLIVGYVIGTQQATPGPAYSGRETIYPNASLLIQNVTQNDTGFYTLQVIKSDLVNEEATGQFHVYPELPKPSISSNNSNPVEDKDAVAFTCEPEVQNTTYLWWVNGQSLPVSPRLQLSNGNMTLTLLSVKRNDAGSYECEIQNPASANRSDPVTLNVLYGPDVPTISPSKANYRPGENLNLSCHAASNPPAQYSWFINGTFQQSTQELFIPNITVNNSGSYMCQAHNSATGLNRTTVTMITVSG
Human trophoblast cell-surface antigen (TROP-2) (human), sequence (P09758 27-323): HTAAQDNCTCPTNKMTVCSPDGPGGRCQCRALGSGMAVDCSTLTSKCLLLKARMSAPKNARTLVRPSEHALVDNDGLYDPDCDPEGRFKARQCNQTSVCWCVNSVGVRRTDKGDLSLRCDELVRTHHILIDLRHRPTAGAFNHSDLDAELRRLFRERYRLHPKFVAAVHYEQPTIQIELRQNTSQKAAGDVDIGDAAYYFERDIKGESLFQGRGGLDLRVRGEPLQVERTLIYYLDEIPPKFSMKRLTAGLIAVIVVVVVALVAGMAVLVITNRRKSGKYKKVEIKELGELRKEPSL

Median fluorescence [1]: 7.7
Median fluorescence [2]: 145
Median fluorescence [3]: 40.8
Median fluorescence [4]: 11.2
Median fluorescence [5]: 10.3
Median fluorescence [6]: 16
Median fluorescence [7]: 22.9
Median fluorescence [8]: 23.3
Median fluorescence [9]: 45.9
Molecule: epratuzumab (hLL2), humanized anti-CD22 IgG1 (antibody)

MFI [10]: 237
MFI [11]: 795
Molecule: humanized RS7 IgG (hRS7), anti-TROP-2 humanized antibody

MFI [12]: 9
MFI [13]: 248
MFI Ratio hLL1:bkgd [14]: 19.6
MFI Ratio hLL1:bkgd [15]: 31.2
Kd [16]: 0.77 nM
MFI Ratio hLL1:bkgd [17]: 28.8
MFI Ratio hLL1:bkgd [18]: 1.8
MFI Ratio hLL1:bkgd [19]: 36.7
MFI [20]: 8
MFI Ratio hLL1:bkgd [21]: 2.1
MFI [22]: 156
MFI [23]: 59
MFI [24]: 143
MFI [25]: 5
MFI Ratio hLL1:bkgd [26]: 28.5
MFI Ratio hLL1:bkgd [27]: 1.5
MFI [28]: 144
MFI Ratio hLL1:bkgd [29]: 5.3
MFI [30]: 22
MFI [31]: 220
MFI Ratio hLL1:bkgd [32]: 49.6
MFI [33]: 114
MFI [34]: 16
MFI [35]: 185
MFI Ratio hLL1:bkgd [36]: 1.6
MFI Ratio hLL1:bkgd [37]: 1.3
MFI Ratio hLL1:bkgd [38]: 28.6
MFI Ratio hLL1:bkgd [39]: 30.8
MFI [40]: 17
Molecule: milatuzumab (hLL1), humanized anti-CD74 antibody

MFI [41]: 81
MFI [42]: 175
MFI [43]: 1120
B1: hMN-15, humanized anti-CEACAM6 antibody (antibody, from a related filing, IgG1, V domains shown)
VH: QVQLVESGGGVVQPGRSLRLSCSSSGFALTDYYMSWVRQAPGKGLEWLGFIANKANGHTTDYSPSVKGRFTISRDNSKNTLFLQMDSLRPEDTGVYFCARDMGIRWNFDVWGQGTPVTVSS
VL: DIQLTQSPSSLSASVGDRVTMTCSASSRVSYIHWYQQKPGKAPKRWIYGTSTLASGVPARFSGSGSGTDFTFTISSLQPEDIATYYCQQWSYNPPTFGQGTKVEIKR

Median fluorescence [44]: 97.4
Median fluorescence [45]: 815
Median fluorescence [46]: 620
Median fluorescence [47]: 605
Median fluorescence [48]: 21.5
Median fluorescence [49]: 6.9
Median fluorescence [50]: 12.3
Median fluorescence [51]: 422
Median fluorescence [52]: 3.7
B2: veltuzumab (hA20), humanized anti-CD20 IgG1 (antibody, from a related filing, V domains shown, part only)
VH: QVQLQQSGAEVKKPGSSVKVSCKASGYTFTSYNMHWVKQAPGQGLEWIGAIYPGNGDTSYNQKFKGKATLTADESTNTAYMELSSLRSEDTAFYYCARSTYYGGDWYFDVWGQGTTVTVSS
VL: DIQLTQSPSSLSASVGDRVTMTCRASSSVSYIHWFQQKPGKAPKPWIYATSNLASGVPVRFSGSGSGTDYTFTISSLQPEDIATYYCQQWTSNPPTFGGGTKLEIK

From US20180085469A1
